Source: publication PMC5909843 (Immunity, 2018)

B1: AMMO1 with the first residue of the heavy chain substituted by an asparagine (antibody, V domains shown)
VH: NVQLVQSGADVKKPGASVKVSCKASGYTFIHFGISWVRQAPGQGLEWMGWIDTNNGNTNYAQSLQGRVTMTTDTSTGTAYMELRSLSTDDTAVYFCARALEMGHRSGFPFDYWGQGVLVTVSP
VL: SYELTQPPSVSVAPGQRATITCGGHNIGAKNVHWYQQKPGQAPVLVIQYDSDRPSGIPERFSGSNSGSTATLTISRVEAGDEADYYCQVWDSGRGHPLYVFGGGTKVTVL
B2: E1D1, murine anti-gH/gL monoclonal antibody (antibody, V domains shown)
VH: EVQLEQSGPELVKPGASVKMSCKASGYTFTDYVISWVKQRTGQGLEWIGEIYPESGNTYYNEKFKGEATLTADKSSNTAYMQLSRLTSEDSAVYFCAEGYAMDFWGQGTSVTVSS
VL: DIVITQTPLSLPVSLGDQASISCRSSQSLLHSNGNTYLHWYLQRPGQSPKLLIYKVSNRFSGVPDRFSGSGSGTDFTLMINRVEAEDLGVYFCSQSIHVPRTFGGGTKLEIK

Biological target: EBV gH/gL heterodimer, recombinant ectodomain (Epstein-Barr virus, UniProt P03231;P03212)
Assay: BLI

| Binder | binding result |
| --- | --- |
| B1 | binds |
| B2 | binds |
